Results from the Human Domainome abundance scans (Beltran et al. 2025).
± gives the uncertainty stated by the source.

B1: Transcription factor SOX-4, residues 60 to 127; numbered along this chain, Q06945 (parent)
chain: KRPMNAFMVWSQIERRKIMEQSPDMHNAEISKRLGKRWKLLKDSDKIPFIREAERLRLKHMADYPDYK

Variants of: B1
Assay: abundance fitness (aPCA) (normalised: wild type 0, dead -1); higher = more abundant; growth selection in yeast, the domain comes from the species named
Settings: Homo sapiens

R55D and R55M are within error of each other in abundance fitness: -0.136 ± 0.07 for the first, -0.2 ± 0.091 for the second.

R55E and R55S are within error of each other in abundance fitness: -0.333 ± 0.076 for the first, -0.309 ± 0.045 for the second.

R55T and R55V are within error of each other in abundance fitness: -0.181 ± 0.067 for the first, -0.248 ± 0.039 for the second.

First: D66R
Second: D66Q
The abundance fitness of the first is higher: 0.015 ± 0.078 for the first, -0.254 ± 0.083 for the second.

Going from D66H to D66C, the abundance fitness falls from -0.141 ± 0.13 to -0.422 ± 0.1.

D66W and K36G are within error of each other in abundance fitness: -0.325 ± 0.13 for the first, -0.416 ± 0.08 for the second.

K36A and K36S are within error of each other in abundance fitness: -0.019 ± 0.071 for the first, -0.098 ± 0.11 for the second.

Going from K36D to K36E, the abundance fitness rises from -0.362 ± 0.25 to 0.325 ± 0.071.

Going from P65W to P65V, the abundance fitness rises from -0.466 ± 0.11 to -0.097 ± 0.068.

First: P65E
Second: P65M
The abundance fitness of the first is higher: -0.025 ± 0.076 for the first, -0.193 ± 0.089 for the second.

P65K and P65H are within error of each other in abundance fitness: 0.018 ± 0.07 for the first, -0.09 ± 0.11 for the second.

Going from A6W to A6V, the abundance fitness rises from -0.896 ± 0.1 to -0.507 ± 0.054.

Going from A6S to A6I, the abundance fitness falls from -0.495 ± 0.05 to -0.794 ± 0.083.

Compared with A6P, Q21F is lower in abundance fitness: -0.111 ± 0.092 for the first, -0.426 ± 0.14 for the second.

Q21M and Q21N are within error of each other in abundance fitness: -0.244 ± 0.1 for the first, -0.382 ± 0.12 for the second.

First: Q21T
Second: Q21P
The abundance fitness of the first is higher: -0.085 ± 0.075 for the first, -0.874 ± 0.15 for the second.

Q21V and M8N are within error of each other in abundance fitness: -0.2 ± 0.061 for the first, -0.242 ± 0.04 for the second.

First: M8A
Second: M8V
The abundance fitness of the first is higher: 0.023 ± 0.044 for the first, -0.178 ± 0.048 for the second.

L40G and L40R are the same in abundance fitness: -0.08 ± 0.041 for the first, -0.08 ± 0.041 for the second.

Going from L40Y to A53I, the abundance fitness falls from -0.331 ± 0.08 to -0.662 ± 0.23.

A53V and A53P are within error of each other in abundance fitness: -0.787 ± 0.12 for the first, -1.19 ± 0.3 for the second.

K46V and K46S are within error of each other in abundance fitness: -0.798 ± 0.061 for the first, -0.901 ± 0.066 for the second.

K46N and K46W are within error of each other in abundance fitness: -1.08 ± 0.11 for the first, -0.95 ± 0.11 for the second.

K46Y and K46F are within error of each other in abundance fitness: -1 ± 0.13 for the first, -0.995 ± 0.11 for the second.

Compared with K46R, I30P is lower in abundance fitness: -0.237 ± 0.04 for the first, -0.976 ± 0.18 for the second.

Going from I30V to I30M, the abundance fitness falls from 0.022 ± 0.037 to -0.254 ± 0.063.

Going from I30F to I30A, the abundance fitness rises from -0.912 ± 0.11 to -0.605 ± 0.1.

Compared with I30T, I30W is lower in abundance fitness: -0.661 ± 0.12 for the first, -0.875 ± 0.089 for the second.

Going from P23W to P23N, the abundance fitness rises from -0.766 ± 0.088 to -0.554 ± 0.057.

Compared with P23R, P23Y is lower in abundance fitness: -0.669 ± 0.048 for the first, -0.862 ± 0.091 for the second.

D24W and D24M are within error of each other in abundance fitness: -0.188 ± 0.063 for the first, -0.214 ± 0.057 for the second.

Compared with D24I, D24S is higher in abundance fitness: -0.632 ± 0.1 for the first, -0.15 ± 0.04 for the second.

First: D24R
Second: D24G
The abundance fitness of the first is lower: -0.307 ± 0.044 for the first, -0.123 ± 0.042 for the second.

First: R33W
Second: R33Q
The abundance fitness of the first is lower: -0.089 ± 0.066 for the first, 0.332 ± 0.077 for the second.

Compared with R33S, R33T is higher in abundance fitness: -0.1 ± 0.07 for the first, 0.085 ± 0.097 for the second.

First: R33G
Second: H26G
The abundance fitness of the first is lower: -0.283 ± 0.064 for the first, -0.082 ± 0.071 for the second.

H26Q and H26K are within error of each other in abundance fitness: 0.111 ± 0.1 for the first, 0.138 ± 0.15 for the second.

Going from H26F to H26M, the abundance fitness rises from -0.713 ± 0.43 to -0.182 ± 0.093.

First: H26P
Second: D43Q
The abundance fitness of the first is higher: 0.134 ± 0.092 for the first, -0.337 ± 0.069 for the second.

D43V and D43K are within error of each other in abundance fitness: -0.262 ± 0.039 for the first, -0.273 ± 0.06 for the second.

D43F and D43L are within error of each other in abundance fitness: -0.087 ± 0.041 for the first, -0.151 ± 0.044 for the second.

D43C and K68C are within error of each other in abundance fitness: -0.37 ± 0.058 for the first, -0.242 ± 0.17 for the second.

K68E and K68L are within error of each other in abundance fitness: -0.155 ± 0.11 for the first, -0.297 ± 0.42 for the second.

R16V and R16Q are within error of each other in abundance fitness: -0.111 ± 0.038 for the first, -0.023 ± 0.067 for the second.

R16D and R16L are within error of each other in abundance fitness: -0.223 ± 0.054 for the first, -0.154 ± 0.04 for the second.

R16A and Y67I are within error of each other in abundance fitness: -0.011 ± 0.048 for the first, 0.11 ± 0.15 for the second.

Y67R and Y67N are within error of each other in abundance fitness: 0.048 ± 0.11 for the first, 0.034 ± 0.15 for the second.

Y67L and Y67A are within error of each other in abundance fitness: -0.022 ± 0.046 for the first, 0.028 ± 0.093 for the second.

Y64M and Y64E are within error of each other in abundance fitness: -0.061 ± 0.078 for the first, 0.006 ± 0.083 for the second.

Y64T and Y64K are within error of each other in abundance fitness: 0.059 ± 0.065 for the first, 0.128 ± 0.095 for the second.

Y64C and Y64G are within error of each other in abundance fitness: -0.056 ± 0.2 for the first, -0.008 ± 0.073 for the second.

Y64Q and K32F are within error of each other in abundance fitness: -0.112 ± 0.13 for the first, -0.281 ± 0.045 for the second.

Going from K32R to K32Q, the abundance fitness rises from -0.054 ± 0.036 to 0.066 ± 0.079.

Going from K32C to K32E, the abundance fitness rises from -0.167 ± 0.046 to 0.183 ± 0.044.

K32L and K32Y are within error of each other in abundance fitness: -0.08 ± 0.031 for the first, -0.062 ± 0.053 for the second.

D63V and D63K are within error of each other in abundance fitness: -0.224 ± 0.038 for the first, -0.128 ± 0.06 for the second.

D63F and D63W are within error of each other in abundance fitness: -0.283 ± 0.05 for the first, -0.179 ± 0.061 for the second.

D63P and D63S are within error of each other in abundance fitness: -0.117 ± 0.074 for the first, -0.153 ± 0.036 for the second.

First: K59W
Second: K59P
The abundance fitness of the first is lower: -0.369 ± 0.056 for the first, -0.178 ± 0.089 for the second.

K59A and K59R are within error of each other in abundance fitness: -0.04 ± 0.064 for the first, -0.126 ± 0.035 for the second.

K1T and K1W are within error of each other in abundance fitness: -0.379 ± 0.082 for the first, -0.336 ± 0.13 for the second.

K1M and K1C are within error of each other in abundance fitness: -0.214 ± 0.15 for the first, -0.206 ± 0.095 for the second.

Compared with K1P, K1S is higher in abundance fitness: -0.549 ± 0.3 for the first, -0.011 ± 0.15 for the second.

Compared with K1G, L56R is lower in abundance fitness: -0.054 ± 0.068 for the first, -0.254 ± 0.054 for the second.

L56W and L56Y are within error of each other in abundance fitness: -0.542 ± 0.088 for the first, -0.349 ± 0.22 for the second.

Compared with L56K, L56F is lower in abundance fitness: -0.174 ± 0.15 for the first, -0.543 ± 0.11 for the second.

L56A and L56C are within error of each other in abundance fitness: -0.355 ± 0.073 for the first, -0.408 ± 0.1 for the second.

N27D and N27H are within error of each other in abundance fitness: 0.147 ± 0.045 for the first, 0.059 ± 0.049 for the second.

Compared with N27S, N27C is lower in abundance fitness: 0.07 ± 0.049 for the first, -0.164 ± 0.055 for the second.

Compared with N27F, E29R is lower in abundance fitness: -0.245 ± 0.057 for the first, -0.883 ± 0.1 for the second.

E29K and E29G are within error of each other in abundance fitness: -0.691 ± 0.24 for the first, -0.628 ± 0.089 for the second.

E29T and E29L are within error of each other in abundance fitness: -0.348 ± 0.12 for the first, -0.518 ± 0.067 for the second.

Compared with E29M, E29W is lower in abundance fitness: -0.225 ± 0.12 for the first, -0.84 ± 0.18 for the second.

E29H and E29I are within error of each other in abundance fitness: -0.879 ± 0.46 for the first, -0.916 ± 0.19 for the second.

E29P and R2S are within error of each other in abundance fitness: -0.162 ± 0.15 for the first, 0.003 ± 0.093 for the second.

R2I and R2W are within error of each other in abundance fitness: -0.012 ± 0.12 for the first, -0.164 ± 0.095 for the second.

R2T and R2H are within error of each other in abundance fitness: -0.457 ± 0.2 for the first, -0.305 ± 0.19 for the second.

Going from S44Y to S44T, the abundance fitness rises from -0.687 ± 0.19 to -0.134 ± 0.12.

Compared with S44P, S44Q is higher in abundance fitness: -0.465 ± 0.13 for the first, -0.073 ± 0.073 for the second.

A62V and N5D are within error of each other in abundance fitness: -0.123 ± 0.037 for the first, -0.032 ± 0.15 for the second.

Going from N5A to N5R, the abundance fitness falls from -0.559 ± 0.1 to -0.879 ± 0.19.

M19D and M19W are within error of each other in abundance fitness: -0.463 ± 0.088 for the first, -0.326 ± 0.068 for the second.

Compared with M19Y, M19P is lower in abundance fitness: -0.459 ± 0.064 for the first, -0.785 ± 0.26 for the second.

M19C showed an abundance fitness of -0.175 ± 0.045.
